Experiments:
[1] = molecular target: integrin αIIbβ3 of human platelets (human (endogenous in platelets)) (UniProt P08514); assay: flow cytometry on cells
[2] = molecular target: integrin αIIbβ3 of human platelets (human (endogenous in platelets)) (UniProt P08514)

Rhodostomin (Rho), recombinant, ^48PRGDMP-^65PRYH (natural protein)
IC50 [1]: 90.8 nM | IC50 of inhibition of platelet aggregation [2]: 83.2 nM

Reference: publication PMC5388508
